Measured values reported in FireProtDB (doi:10.1021/bi00181a602).
“And” between values parts separate entries of the source, which are not always exact repeats. Equal values may be shown once.

Details: Mus musculus; pH 3.5; 23 °C; GdnHCl; Fluorescence; citrate-phosphate 100 mM; reversible: yes; whole UniProt chain shown

B1: Neurotrophin-3 wild type, P20181 (protein)
chain: MSILFYVIFLAYLRGIQGNSMDQRSLPEDSLNSLIIKLIQADILKNKLSKQMVDVKENYQSTLPKAEAPREPEQGEATRSEFQPMIATDTELLRQQRRYNSPRVLLSDSTPLEPPPLYLMEDYVGNPVVANRTSPRRKRYAEHKSHRGEYSVCDSESLWVTDKSSAIDIRGHQVTVLGEIKTGNSPVKQYFYETRCKEARPVKNGCRGIDDKHWNSQCKTSQTYVRALTSENNKLVGWRWIRIDTSCVCALSRKIGRT
  denaturant m value: 3.4 kcal/mol/M and 4 kcal/mol/M and 5.1 kcal/mol/M
  denaturant midpoint (higher = more stable): 1.4 M and 2.2 M and 2.1 M
  unfolding free energy: 12.7 kcal/mol and 17 kcal/mol and 19 kcal/mol
